The record followed here is patent US20230203142A1 (published 2023).

Experiment [1] concerns the target T1, human NDPK-A (nucleoside diphosphate kinase A), full-length recombinant (human, UniProt P15531 2-152).
T1 construct: Bought protein (Acro Biosystems NM1-H5147); It was fluorescently labelled (lysine, cysteine or His-tag dye) in MST; also called nm23
As to the kind of experiment: MST, NDPK labelled, FABP4 unlabelled. The procedure: (§1) Human NDPK-A (Acro Biosystems, product number NM1-H5147) was prepared in PBS to a stock concentration of 0.4 mg/ml. Human ADK (Novus Biologicals, product number NBP1-44382 or R&D Systems, product number 8024-AK-025) was purchased at a stock concentration of 0.5 mg/ml and buffer exchanged into PBS. Protein concentration used for labeling was 20 uM. Experiments were conducted independently with each of NDPK and ADK labeled with each kit (i.e., experiments were performed with lysine-labeled, cysteine-labeled, and His-labeled versions of each protein to confirm the site of labeling was not influencing detected interaction). […] Concentration of labeled proteins ranged from 12 nM to 20 nM, as determined by MST quantification to obtain a fluorescence intensity of ˜350 from each capillary tube. […]
(§2) To further confirm the formation of the proposed complex, GST-tagged NDPK (GST-NDPK) was generated and immunoprecipitation experiments were performed to investigate the interaction of each proposed component with NDPK. Interaction between all three components of the proposed complex, as well as with the complex and a-Ab (FIG. 4M) were readily identified.

For experiment [2], the target named is T2, human ADK (adenosine kinase), recombinant (human, UniProt P55263 2-362).
T2 construct: Bought protein (Novus Biologicals NBP1-44382 or R&D Systems 8024-AK-025); It was fluorescently labelled in MST
As to the kind of experiment: MST, one-to-one recombinant proteins, ADK labelled. The procedure: Additionally, one-to-one recombinant protein interaction assays were performed using Microscale Thermophoresis (MST) to independently validate the interactions between each of the proposed complex components. MST is a technology for the interaction analysis of biomolecules. MST is the directed movement of particles in a microscopic temperature gradient. Any change of the hydration shell of biomolecules due to changes in their structure/conformation results in a relative change of the movement along the temperature gradient and is used to determine binding affinities. MST allows measurement of interactions directly in solution without the need of immobilization to a surface (immobilization-free technology).
To perform this technique, proteins were desalted and buffer exchanged into PBS prior to labeling. […] Experiments were conducted independently with each of NDPK and ADK labeled with each kit (i.e., experiments were performed with lysine-labeled, cysteine-labeled, and His-labeled versions of each protein to confirm the site of labeling was not influencing detected interaction). […] Concentration of labeled proteins ranged from 12 nM to 20 nM, as determined by MST quantification to obtain a fluorescence intensity of ˜350 from each capillary tube. […]

The target of experiment [3] is T2, human ADK (adenosine kinase), …. As to the kind of experiment: MST, ADK labelled, antibody unlabelled. As for the experimental part:
To perform this technique, proteins were desalted and buffer exchanged into PBS prior to labeling. Desalting was performed using Zeba Spin Desalting Columns (Thermo Scientific, product number 89882, 0.5 ml volume) in a volume of 0.1 ml according to the manufacturer's instructions. Human NDPK-A (Acro Biosystems, product number NM1-H5147) was prepared in PBS to a stock concentration of 0.4 mg/ml. Human ADK (Novus Biologicals, product number NBP1-44382 or R&D Systems, product number 8024-AK-025) was purchased at a stock concentration of 0.5 mg/ml and buffer exchanged into PBS. Protein concentration used for labeling was 20 uM. Experiments were conducted independently with each of NDPK and ADK labeled with each kit (i.e., experiments were performed with lysine-labeled, cysteine-labeled, and His-labeled versions of each protein to confirm the site of labeling was not influencing detected interaction). Labeling kits were: Monolith Protein Labeling Kit RED-NETS (Amine Reactive; Product number MO-L001), Monolith Protein Labeling Kit RED-MALEIMIDE (Cysteine Reactive; Product number: MO-L004), and Monolith His-Tag Labeling Kit RED-tris-NTA (Product number: MO-L008). […] Concentration of labeled proteins ranged from 12 nM to 20 nM, as determined by MST quantification to obtain a fluorescence intensity of ˜350 from each capillary tube. […]

The target of experiment [4] is T1, human NDPK-A (nucleoside diphosphate …). The experiment is described as follows: MST, NDPK labelled, antibody unlabelled. As for the experimental part: as §1, §2
Another experiment has as its target T3, NDPK-A peptide 5 (human).
T3 peptide: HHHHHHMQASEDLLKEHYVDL
As to the kind of experiment: MST, His-tag-labelled peptide against a-Ab.

The target in a further experiment is T4, NDPK-A peptide 6 (human).
T4 peptide: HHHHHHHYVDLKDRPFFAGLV
As to the kind of experiment: MST, His-tag-labelled peptide against a-Ab.

Another experiment deals with T5, NDPK-A peptide 7 (human).
T5 peptide: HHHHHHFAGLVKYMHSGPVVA
The experiment is described as follows: MST, His-tag-labelled peptide against a-Ab.

A further experiment has as its target T6, NDPK-A peptide 9 (human).
T6 peptide: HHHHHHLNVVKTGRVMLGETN
The experiment is described as follows: MST, His-tag-labelled peptide against a-Ab.

In a further experiment the target is T7, NDPK-A peptide 10 (human).
T7 peptide: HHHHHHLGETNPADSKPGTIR
The experiment is described as follows: MST, His-tag-labelled peptide against a-Ab.

The next experiment deals with T8, NDPK-A peptide 11 (human).
T8 peptide: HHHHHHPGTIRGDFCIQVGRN
As to the kind of experiment: MST, His-tag-labelled peptide against a-Ab.

The target of another experiment is T9, NDPK-A peptide 12 (human).
T9 peptide: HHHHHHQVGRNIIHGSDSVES
As to the kind of experiment: MST, His-tag-labelled peptide against a-Ab.

The target of the next experiment is T10, NDPK-A peptide 13 (human).
T10 peptide: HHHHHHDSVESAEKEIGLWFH
As to the kind of experiment: MST, His-tag-labelled peptide against a-Ab.

The target in the next experiment is T11, NDPK-A peptide 14 (human).
T11 peptide: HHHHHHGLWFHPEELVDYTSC
The experiment is described as follows: MST, His-tag-labelled peptide against a-Ab.

A further experiment has as its target T12, NDPK-A peptide 15 (human).
T12 peptide: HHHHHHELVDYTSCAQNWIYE
The experiment is described as follows: MST, His-tag-labelled peptide against a-Ab.

Another experiment addresses T13, NDPK-A peptide 1 (human).
T13 peptide: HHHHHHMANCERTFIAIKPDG
As to the kind of experiment: MST, His-tag-labelled peptide against a-Ab.

Another experiment has as its target T14, NDPK-A peptide 4 (human).
T14 peptide: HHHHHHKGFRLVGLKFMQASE
The experiment is described as follows: MST, His-tag-labelled peptide against a-Ab.

The target in another experiment is T15, NDPK-A peptide 8 (human).
T15 peptide: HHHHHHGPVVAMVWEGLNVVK
As to the kind of experiment: MST, His-tagged peptide; column head prints 'Binding Affinity (Ka)'.

The target of another experiment is T16, NDPK-A peptide 2 (human).
T16 peptide: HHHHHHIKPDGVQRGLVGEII
The experiment is described as above.

The next experiment concerns the target T17, NDPK-A peptide 3 (human).
T17 peptide: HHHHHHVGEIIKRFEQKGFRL
The description is as above.

In experiment [5] the target is T1, human NDPK-A (nucleoside diphosphate …). The experiment is described as follows: MST, His-tagged full-length NDPK-A; column head prints 'Binding Affinity (Ka)'.

Broadly, the Kd is a measure of binding affinity in units of concentration.

T1 sequence (P15531 other isoform, or with tags, fused parts or gaps limits assumed): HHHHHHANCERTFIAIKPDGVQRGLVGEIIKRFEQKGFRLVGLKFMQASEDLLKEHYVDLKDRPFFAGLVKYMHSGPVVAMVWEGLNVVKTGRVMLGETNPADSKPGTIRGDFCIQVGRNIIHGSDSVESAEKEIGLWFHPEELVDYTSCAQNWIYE
T2 sequence (P55263 2-362 limits assumed): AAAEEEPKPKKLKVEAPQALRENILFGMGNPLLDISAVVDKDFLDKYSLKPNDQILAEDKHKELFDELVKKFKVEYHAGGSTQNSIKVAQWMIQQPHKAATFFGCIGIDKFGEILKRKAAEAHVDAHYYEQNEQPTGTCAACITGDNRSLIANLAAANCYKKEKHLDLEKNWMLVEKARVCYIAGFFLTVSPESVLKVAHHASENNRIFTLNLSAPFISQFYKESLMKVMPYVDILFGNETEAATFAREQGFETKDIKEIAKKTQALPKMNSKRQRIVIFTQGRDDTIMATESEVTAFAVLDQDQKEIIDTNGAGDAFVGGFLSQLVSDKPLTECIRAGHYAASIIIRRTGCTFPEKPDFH

B1: recombinant human FABP4 (fatty acid binding protein 4) (other)
chain: CDAFVGTWKLVSSENFDDYMKEVGVGFATRKVAGMAKPNMIISVNGDVITIKSESTFKNTEISFILGQEFDEVTADDRKVKSTITLDGGVLVHVQKWDGKSTTIKRKREDDKLVVECVMKGVTSTRVYERA
notes: Recombinant human FABP4 produced in-house; also called aP2; hormonal FABP4
Turning to B1, the dissociation constant (Kd) was approximately 700 nM in experiment [1] and approximately 7 nM in experiment [2].

B2: CA33 (a-Ab) monoclonal antibody (antibody)
heavy: QSVEESGGRLVTPGTPLTLTCTVSGFSLSTYYMSWVRQAPGKGLEWIGIIYPSGSTYCASWAKGRFTISKASTTVDLKITSPTTEDTATYFCARPDNDGTSGYLSGFGLWGQGLVTVSSAKTTPPSVYPLAPGSAAQTNSMVTLGCLVKGYFPEPVTVTWNSGSLSSGVHTFPAVLQSDLYTLSSSVTVPSSTWPSETVTCNVAHPASSTKVDKKIVPRDC
light: DVVMTQTPASVSEPVGGTVTIKCGASEDISRYLVWYQQKPGQPPKRLIYKASTLASGVPSRFKGSGSGTDFTLTISDLECDDAATYYCQCTYGTYAGSFFYSFGGGTEVVVERTDAAPTVSIFPPSSEQLTSGGASVVCFLNNFYPKDINVKWKIDGSERQNGVLNSWTDQDSKDCTYSMSSTLTLTKDEYERHNSYTCEATHKTSTSPIVKSFNRNEC
notes: Described as a monoclonal antibody; also called active antibody
For B2, the Kd was approximately 1900 nM in experiment [3]; approximately 150 nM in experiment [4]; 69.6 nM in the experiment with NDPK-A peptide 8; 15900 nM with NDPK-A peptide 2; 8980 nM with NDPK-A peptide 3; 116 nM in experiment [5]. The binding result in the experiment with NDPK-A peptide 5, with NDPK-A peptide 6, in the experiment with NDPK-A peptide 7, with NDPK-A peptide 9, with NDPK-A peptide 10 and in the experiment with NDPK-A peptide 11 was “no binding” in each case. Besides, the binding result with NDPK-A peptide 12, with NDPK-A peptide 13, with NDPK-A peptide 14, in the experiment with NDPK-A peptide 15, in the experiment with NDPK-A peptide 1 and in the experiment with NDPK-A peptide 4 was “no binding” throughout.
